Laboratory results published in the domain aggregation screens of Martell et al. (2025).

Experiment: soluble fraction after stress (log2 fold change); higher = more stays soluble; pooled small domains, quantitative proteomics
Settings: stress: 75 degC
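Note: 20 min heating vs room temperature control held 20 min.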

Sequence: HMDSPVEEWANRGLAYDPSLVTETMAKLYAKQGQIGLARKAFKRLALIYPEKSVYFAFQLKKLSNN
- soluble fraction (log2): -2.01

Sequence: HMDSPVLTAEIKALIDKELEQNAVKLATGLKKQRKRATDIHDALIRQGHEVSYRTVVRYIRNKTAQTS
- soluble fraction (log2): -0.751

Sequence: HMDSTSEILKVIQNIVKKEDPYHPLSDDKISNLLNDLDYQISRRTVAKYRDILTIPSSSKRRKL
- soluble fraction (log2): -0.256

Sequence: HMDSVEMFSPILGMNANMDLDTLTQTRDKLLEKYKDDEQLIGLVNKTYDYFNEILLKQFLIEELEKNE
- soluble fraction (log2): 0.0898

Sequence: HMDSVFGVVTSSDGVKLRKEASTISKVLTVLPYGTEVDVDRIGSEWIRIVTDGGQKGYVSADYLAVREGER
- soluble fraction (log2): 0.682

Sequence: HMDSVPEEQLRQLALDKAKEVKRWGQPVELAKMNAHDRRIIHINLQDDPEIETRSEGEGALKSVIISLKK
- soluble fraction (log2): 0.0979

Sequence: HMDSYADVLSDYRGKYKTNTISGLKGLRDKIREDMLAAADSLDFEKAALLRDEMNDLNKKIELKEKT
- soluble fraction (log2): ≥ 1.04

Sequence: HMDTERLYAYAWQTHLKQFGLNISEEEIRQFVGVDDRIVHSFYAKTVPLDDFENTMFSLGEIIQQSL
- soluble fraction (log2): -2.58

Sequence: HMDTFNVIARQEIDGILYEYKIMTVEDYKNQSPENLAVIYENIKAVMEQYDLSEDDADAILVDLLG
- soluble fraction (log2): -1.14

Sequence: HMDTIRINSGSTVKEVAEYLGIPVPEVIKKLMSMGELATLTKTLSDDHIEVLAEEFEKKIKIVHVGEEAD
- soluble fraction (log2): -0.458

Sequence: HMDTITDSYTLEKGKLRAKVMEYELPESKKKEYSATFEYRGVYYHMIGIIEKADFEEILKNLHFP
- soluble fraction (log2): -0.168

Sequence: HMDTIVVAARSIQARQTLTESDLRVEEQEIGAASDKYYTDIAEAVGLVSSRRLSPGQPILRTM
- soluble fraction (log2): -0.352

Sequence: HMDTLKDFISGVSIVFENKYSVGDNVTIGDFRGDVIELGMKTTKIRAYTGEVLIIPNHLVEKVINH
- soluble fraction (log2): -1.56

Sequence: HMDTLRARQEAAYRFLSAIAGDWRNYEEANRALFAGDAARFQDLTESWPADVRDHARHLASAAFSS
- soluble fraction (log2): -0.8

Sequence: HMDTNAIIGLRIKNLRTEKKYTLKYLSENTGLSIGFLSQLERGMTSIAIDSLDKISKVLDVELSSFFT
- soluble fraction (log2): -1.69

Sequence: HMDTNELIDRYVNEVGQHLPRKTRADIEMELRSLLLDTLEEQSGGEPTPKMAAEVLREFGHPEEIAAQYH
- soluble fraction (log2): -0.386

Sequence: HMDTRKKLEQIFKLFDKTGTGMVNIDEFKSVLKLFMEEIDEKFGNYFIAYFDENGDGKIEFEEFADVVL
- soluble fraction (log2): -0.444

Sequence: HMDTSAHEVLSAIRSIIEDEDKRHPLSDEAITSRLSQQGYDIARRTVAKYRERLGLPVARLRRE
- soluble fraction (log2): -0.26

Sequence: HMDVALEALDESDGAVRLQFSGALQTYLNDSTTAASLEAISKTFRAFYEAAGRPVDTLEVYAAGEPVT
- soluble fraction (log2): 0.105

Sequence: HMDVDKQLDQLLAAMIPDKSLRQTIKTKAFNELVDNELADKDISSWTKQTMDVFMTRAEDMFGAM
- soluble fraction (log2): -0.274

Sequence: HMDVEMLIDKYQLNDSEAEVLRFMKKNRQSLKTIGIRDVAKATYVSTATIINMAKKIGYSGYSELVFALGN
- soluble fraction (log2): -1.69

Sequence: HMDVNAQAGYDKLQSNQLDGARHDYEQALKTDPNNVDTLLALAAIAQRQGRSADADGYRQRAIDAD
- soluble fraction (log2): -0.378

Sequence: HMDVNHVIIDHKGNSIQAIIDSIDLDNVYYQSKIKKESEVIDIDKVYFIFNDFDRVYHYDWSYYENL
- soluble fraction (log2): -0.166

Sequence: HMDVNLSIRSGETIGIIGSTGSAKSTLVQLIPRLYDTTEGEVLVGGVNVKNYDLEALRNSVAMVLQKN
- soluble fraction (log2): -0.112

Sequence: HMDVPNLVGEEIKDVRRTLRHFQLEVIGEGSKIVSQVPKHGQRLPENTTIRVYLN
- soluble fraction (log2): -0.0339

Sequence: HMDVPNLVGKTLEEAENELKKLNIRYNVTERADEAPKDTVIEQSPKPYEAMEPGTVVNLVISSGPA
- soluble fraction (log2): ≥ 1.04

Sequence: HMDVQPHIYLRKLDQFWPADLHSLILYTLDGRRLWSADSGNIPALPHRASSLVILEATWDNGQRTRRKQFL
- soluble fraction (log2): -1.75

Sequence: HMDVRKSISDLKALGLSDAAVTVYGTIGNKPVHIDKIVSELGIPVFKVLTALTQLEMKGLVTAMQGRMYVL
- soluble fraction (log2): -2.13

Sequence: HMDVSASEVGLTGRQTDVLSLMVKGRSNRDIAELLGLSEGTVKIHITAIFKALGVASRTQALVAAARLGLK
- soluble fraction (log2): -0.82

Sequence: HMDVSLVEQTQRDILEYISKNNSNAQLPKEQEFVGLLGVSRVVVREALSRLRALGIIETKRKKGTVVVVPE
- soluble fraction (log2): -1.09

Sequence: HMDWVAYGAELRRRRLLAGWSVAELSRRTNLSTSIIYQVEQARTRLRPSQLTLAKLAAALGMP
- soluble fraction (log2): -3.1

Sequence: HMDYAQAQRQAESAIALRPDVERLRLLLIYALQKQGKLREAEQAAADAIKSGLDTPALRQARANLRP
- soluble fraction (log2): -0.732

Sequence: HMDYGSISFINWSIEVLSVIKTRLDRGDKIIDEVSGEKYTASSFEKFVRKNFSSYIFSQVYAEDHKK
- soluble fraction (log2): -2.73

Sequence: HMDYHTIQTGDKGDEVLRLQQALAEYGYYEGDLDGRFGQQTRRAVERFQYSHGLTADGIAGRNTLSVLYD
- soluble fraction (log2): -0.181

Sequence: HMDYIITHYPDNKRFETQVDGVVAFVQYRLSGDKLDIIHTIVPPAIGGRGIAAALVKYAYDYAIENGMK
- soluble fraction (log2): -2.13

Sequence: HMDYKSKLQELVQTEKRTVEYKLVDESGPAHNKSFTFEVVISGIKYGSGTGASKKIAEQNAAKEALEKLA
- soluble fraction (log2): -0.277

Sequence: HMDYKSTLQELVQTVKKSVTYEVIDEEGPSHNKTFTSIVKIDGIVMGKGTAGSKKASEQEAARDALSKR
- soluble fraction (log2): 0.42

Sequence: HMDYLYHNGKEIDQGSIMYKMEDYSDGIFELQSAKYADGTELDEKELEELESTQELIDWVMIDFVS
- soluble fraction (log2): 0.675

Sequence: HMDYNSYGLTERELELVDYVLKGYSRKEMAEASGLKVNTIGSYMKKIYRKLNIHNRTELKERFI
- soluble fraction (log2): -0.119

Sequence: HMDYNYLVFVTNTGPRSIAVEDLEMTVSDGKLVVSSGADGETFDLSTLTKMYFSDAAVVSINDV
- soluble fraction (log2): -1.1

Sequence: HMDYQYILVDVKDRIATVTINRPEYSNAFARESYYEIADAMNTLGARDDVGVIVITGAGKHFSAGGDIKRF
- soluble fraction (log2): -0.777

Sequence: HMDYYKILGLSTSATLDQIKKAFRQLAIEFHPDKNPNNPTAEDKFQRISEAYAVLSNPEKRAEYDRSY
- soluble fraction (log2): -0.0123

Sequence: HMEAAETAVVTGTIVNIRSGPTLDFEAFAQVKQGDRLPVLDKFYNWYYVKLPSGVNGWISGQLVRIEQ
- soluble fraction (log2): -2.86

Sequence: HMEAELNSLVKTYENMKPKAAAQVFEELDMDVLLDVVERMKEKKLAPILAQVTPTRAKEITYELTQRR
- soluble fraction (log2): -0.102

Sequence: HMEAFDYLGRRTRDLLERQGWTTVPLVRDAYLAVPGGERLLQVPGFGRKSLREVRRWLWLQIGDPRFE
- soluble fraction (log2): -1.25

Sequence: HMEAIYKKNKNLIHTVIRDNFPFLIDTADYEDAFQEGSIGLIRAIDRFDDGLEYKFSSYAYTAIRNQIA
- soluble fraction (log2): -1.15

Sequence: HMEALGLSPRQVDVLRLLVEGRSNKMIMRELELSESTVKTHLQAIFRRLGVSSRTQAVVAAARLGL
- soluble fraction (log2): -1.2

Sequence: HMEALSAREIEILQALETGASNRELAKMLFISEATVKTHLVHIYQKLGVGTRTAAITEARERRV
- soluble fraction (log2): -2.1

Sequence: HMEANAYFDAYPDVAAEWARLSGSDEGKATLSAIGVTTPQQFAQYHYTTFGSKENRNAPVGYTP
- soluble fraction (log2): 0.072

Sequence: HMEANPLTDREKEVLELVADGKNTKEIAQELSIKSGTVRNYISMILEKLEVKNRIEAITRSKEKGWF
- soluble fraction (log2): -0.161

Sequence: HMEAPMPIFWRPQFRIGHDDIDADHRYLILLINTVELVLRFPDDPRNVELALTELRRYAEDHFEREER
- soluble fraction (log2): -0.0783

Sequence: HMEAQAHYDAIYKAHPNADSIAQSAEFKAWVDAQPSVVRNAYWQLFDPKEGGTAEQIVEVFDAFVKSS
- soluble fraction (log2): 0.327

Sequence: HMEDDIRSSIRTLDQFISKNQITLSKDVKNYILQLLSNDRMVTINELEKIKIYYDSNENIDLDTVKILLN
- soluble fraction (log2): -0.796

Sequence: HMEDEEILNEIRHTEQYVYYFGNYIMEHHVSRGLSKEKVIASLARELQIEIADIREDFDGMIEQIKTNILN
- soluble fraction (log2): -0.329

Sequence: HMEDESSIERYLGSGAIKGIGPSLAARIVKKFGKDTFRIIEQEPERLAEIKGISERKAMEISTLMEEK
- soluble fraction (log2): -0.056

Sequence: HMEDGRLPPPGTVLRREYKGRAVFVRVLPKGFEFEGEVYRSLSAIAAKVTGSHWNGFRFFGLHE
- soluble fraction (log2): -3.01

Sequence: HMEDHMVVFGKGGRITRLPDKATVLEYLDAANFFASRSSVVKVNGKLASLDQTLRDGDSIEIVD
- soluble fraction (log2): -0.407

Sequence: HMEDINAVLAENLRRLRESRRLSLDAVARLTGVSKSMLGQIERGEVNPTVSTMWKIAGGLKVNFTALFRRE
- soluble fraction (log2): -3.79

Sequence: HMEDIQPSVIFQNNMIDGFKKFGVSFLQNRRNVNVNTLNGLASAGTYPKWQQLLVNKISYIDMLLSTGG
- soluble fraction (log2): 0.0954

Sequence: HMEDKIIVTVPGEYHLERIDRFLAANLEEDLSRSLIQRYIRENLITVNGEAVRANYKVKTDDEILITFPQ
- soluble fraction (log2): -0.842

Sequence: HMEDLAERLDNLSTMYAKMDPVRAAQVLLESKNKSENIEVLKRLKPKSLGLILENMPPREAYDYVSELQ
- soluble fraction (log2): 0.0743

Sequence: HMEDLGYVKVASQTAAIRKSAAVQAGQIGTVHEGETYRYLGEEEGWYLVEYNGQKAYISWDDGEL
- soluble fraction (log2): -0.323

Sequence: HMEDMMKALLDVVRAQHTATEGSEERPFDINDIIDMALNITGRPEEPEEQQELSDTIQKLAESLAPDIFP
- soluble fraction (log2): -0.424

Sequence: HMEDNKLKNEIKNELVSHLEKPYSVEDLADALKYHGSAAFKLIVQELAILERERAVVVTHDGNFKINSS
- soluble fraction (log2): -1.11

Sequence: HMEDPAVYYKILQIPPDASLSEIHRAFEKITSAWDPERYPHISSWKETSAKKLQEIRNAYEKLLILRETG
- soluble fraction (log2): -0.269

Sequence: HMEDPFLWVEKLGSSDWIEREESAEKLLEAGEASVEALRTALTHPDLEVRERVRELLSVISPL
- soluble fraction (log2): 0.409

Sequence: HMEDPRVTEIKNLQQDLAKKFKPTQGPASASDAVERVTAITTVMTKVAALPEDLRSEAMQPGKKM
- soluble fraction (log2): -0.327

Sequence: HMEDQFWQNRAEMALASARRAGRIVTYAEMADAADIPAPQRIHKLTLWLEATMRQDHASGQPLRAALV
- soluble fraction (log2): 0.0883

Sequence: HMEDQITNQQFTMTKQSILDLLVKKSYPPYELANELHLKKEEVLPIIRFLIAENEIHFKDGMLHLPH
- soluble fraction (log2): -1.01

Sequence: HMEDQLDSLKDIIYDYLENNELYYNDLQEFKKIIIENMEFIHPNLNHKLIDNNFFKLINFKLEYNF
- soluble fraction (log2): -0.152

Sequence: HMEDSSSILNRMRKLIALLNRASEAYYKENKEIISNFEYDRLYDELLGLESRSNTVLSGSPTYKV
- soluble fraction (log2): -1.87

Sequence: HMEDTFEYPVSVNGKLRFKIELPVSMEKDEIRNIVLNDERAKKWLATGTLTNLIVVPNRIINIVIK
- soluble fraction (log2): -0.528

Sequence: HMEDTSTLSIKHKIKELINQESPQAILSDDKLVELLAAQGIKIARRTIAKYRETMNIPTSAERKRQKRPP
- soluble fraction (log2): 0.0599

Sequence: HMEDVTLSLVVGEDLDGERLDVFLTWKLDRTRSQVQALIRDGKVRLEQGQRARPSMVVRSGMGISVSLEPR
- soluble fraction (log2): -2.15

Sequence: HMEDYYKILGVSKDASIDDIKKSYRKLSLQNHPDRNKSPQASENFAKINSAYEVLSDQRKKRQYDMQQSM
- soluble fraction (log2): -0.073

Sequence: HMEEAQWEFKWENTDSAEIHGPHSSSEMLKWQENSFFAKGVYVRKVGGDTTDFTDGKRIDFDLY
- soluble fraction (log2): -0.705

Sequence: HMEEDPILVAQRFLNIFRQLHIFDQQRREEFNSMILALPPEIRGTFGVLPGGSVLQEYVDELEISKGMA
- soluble fraction (log2): -1.11
